Experimental data published in paper PMC5792622 (Nature Communications, 2018).

Target: the molecule itself
Experiment: crystal structure

B1: hexon protein of HAdV5^HVR7 (human adenovirus type 5 with four mutations in hypervariable region 7 of the hexon) (natural protein)
chain: MATPSMMPQWSYMHISGQDASEYLSPGLVQFARATETYFSLNNKFRNPTVAPTHDVTTDRSQRLTLRFIPVDREDTAYSYKARFTLAVGDNRVLDMASTYFDIRGVLDRGPTFKPYSGTAYNALAPKGAPNPCEWDEAATALEINLEEEDDDNEDEVDEQAEQQKTHVFGQAPYSGINITKEGIQIGVEGQTPKYADKTFQPEPQIGESQWYETEINHAAGRVLKKTTPMKPCYGSYAKPTNENGGQGILVKQQNGKLESQVEMQFFSTTEATAGNGDNLTPKVVLYSEDVDIETPDTHISYMPTIKEGNSRELMGQQSMPNRPNYIAFRDNFIGLMYYNSTGNMGVLAGQASQLNAVVDLQDRNTELSYQLLLDSIGDRTRYFSMWNQAVDSYDPDVRIIENHGTEDELPNYCFPLGGVGNNSTYTKVKPKTGQENGWEKDATEFSDKNEIRVGNNFAMEINLNANLWRNFLYSNIALYLPDKLKYSPSNVKISDNPNTYDYMNKRVVAPGLVDCYINLGARWSLDYMDNVNPFNHHRNAGLRYRSMLLGNGRYVPFHIQVPQKFFAIKNLLLLPGSYTYEWNFRKDVNMVLQSSLGNDLRVDGASIKFDSICLYATFFPMAHNTASTLEAMLRNDTNDQSFNDYLSAANMLYPIPANATNVPISIPSRNWAAFRGWAFTRLKTKETPSLGSGYDPYYTYSGSIPYLDGTFYLNHTFKKVAITFDSSVSWPGNDRLLTPNEFEIKRSVDGEGYNVAQCNMTKDWFLVQMLANYNIGYQGFYIPESYKDRMYSFFRNFQPMSRQVVDDTKYKDYQQVGILHQHNNSGFVGYLAPTMREGQAYPANFPYPLIGKTAVDSITQKKFLCDRTLWRIPFSSNFMSMGALTDLGQNLLYANSAHALDMTFEVDPMDEPTLLYVLFEVFDVVRVHRPHRGVIETVYLRTPFSAGNATT
modifications: biotin (NHS-biotin), for the SPR only
notes: also called HAdV5^HVR7 hexon
stoichiometry N: 3
